Experimental findings from patent US20190185865A1, “USE OF PROKARYOTIC TRANSCRIPTIONAL ACTIVATORS AS METABOLITE BIOSENSORS IN EUKARYOTIC CELLS” (Danmarks Tekniske Universitet, priority 2016, published 2019) are described below.

Read-outs that look alike come from different tables or passages of the source.

Experiment [1] relates to CYC1 promoter with BenM operator (BenO). The following applies: BenM from TEF1 promoter.
Procedure: Cells grown for 24 h in control (mineral medium, pH 4.5) or inducing medium (mineral medium pH 4.5+1.4 mM CCM, 1.4 mM protocatechuic acid, 10 mM malonic acid, 0.2 mM naringenin, or 50 mM L-arginine) were diluted into PBS to arrest cell growth. Cells were then analyzed by flow cytometry using a Fortessa flow cytometer (Becton Dickinson) with a blue laser (488 nm), for validation of single strains. For each strain 10,000 single-cell events were recorded. Events were analyzed using FlowJo software (TreeStar Inc.). The fluorescence arithmetic mean of the gated cell population was calculated, and the fold-change determined by dividing the mean fluorescence of the induced (ON) state with the mean fluorescence of the control (OFF) state. For flow cytometry for CCM and naringenin producing cells we tested mean fluorescence intensities from 10,000 cells pr. strain following 72 and 48 h, respectively. The data represent the average of three (n=3) biological replicates and error bars correspond to the standard deviation between these measurements.
Initially, BenO was introduced into the 491 bp CYC1 promoter immediately upstream of one of the two TATA boxes—TATA-1β (designated 491 bp_CYC1p_BenO_T1) or TATA-2α (designated 491 bp_CYC1p_BenO_T2), or upstream of both (designated 491 bp_CYC1p_BenO_T1/T2)(FIG. 2a). Outputs from these engineered promoters were compared by flow cytometry to expression from the native CYC1p (491 bp_CYC1p) using GFP as the reporter (FIG. 1a and FIG. 2a).
The target of experiment [2] is T1, BenM (Acinetobacter baylyi, UniProt O68014).
T1 sequence (O68014 whole entry, looked up): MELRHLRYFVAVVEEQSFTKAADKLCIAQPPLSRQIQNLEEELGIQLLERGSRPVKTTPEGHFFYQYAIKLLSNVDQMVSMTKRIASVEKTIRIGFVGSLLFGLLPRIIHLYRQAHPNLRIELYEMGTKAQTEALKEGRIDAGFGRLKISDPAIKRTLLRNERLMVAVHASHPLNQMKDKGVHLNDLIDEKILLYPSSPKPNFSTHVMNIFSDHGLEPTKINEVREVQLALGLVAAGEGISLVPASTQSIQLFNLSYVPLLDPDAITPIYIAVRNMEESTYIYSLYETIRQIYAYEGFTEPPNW
The experiment can be described thus: CCM-induced GFP expression in yeast strains combining BenM expression cassettes and CYC1p reporter promoter variants (flow cytometry). The class given is cell-based, Saccharomyces cerevisiae. On the set-up: expressed in transfected cells; host or cells: Saccharomyces cerevisiae CEN.PK113-5A, chromosomal integration; promoters TDH3p, TEF1p, RNR2p or REV1p. To be noted: 30° C. vs 37° C. An excerpt:
Strains, chemicals and media. Saccharomyces cerevisiae CEN.PK102-5B (MATa ura3-52 his3Δ1 leu2-3/112 MAL2-8^c SUC2), CEN.PK113-5A (MATa, trp1 his3Δ1 leu2-3/112 MAL2-8^c SUC2) and CEN.PK113-7D (wild type, MATa MAL2-8^c SUC2) strains were obtained from Peter Kotter (Johann Wolfgang Goethe-University Frankfurt, Germany). In principal any other yeast strains may be used, such as one obtained from public repository EuroScarf. EasyClone plasmids used in this work are described in Jensen, N. B. et al. EasyClone: method for iterative chromosomal integration of multiple genes in Saccharomyces cerevisiae. FEMS Yeast Res. 14, 238-48 (2014). Escherichia coli strain DH5a was used as a host for cloning and plasmid propagation. The chemicals and Pfu TURBO DNA polymerase were commercially obtained (Sigma-Aldrich and Agilent Technologies Inc., respectively). All acids used were >97% in purity. S. cerevisiae cells were grown at 30° C. in synthetic complete medium as well as drop-out media and agar plates were prepared using pre-mixed drop-out powders (Sigma-Aldrich). Mineral medium was freshly prepared as described previously. For all media containing diacids, 1.4 mM of the individual diacids were dissolved in mineral medium and pH adjusted to 4.5 before sterile filtration. […]
(§1) Events were analyzed using FlowJo software (TreeStar Inc.).

The subject of another experiment is 209 bp_CYC1p_T1 promoter. The experiment can be described thus: LTTR-mediated activation of GFP expression from 209 bp_CYC1p_T1 reporter promoter in yeast, without ligand. The class given is cell-based, Saccharomyces cerevisiae. To be noted: LTTR expressed from strong TDH3 promoter. The protocol:
as §1
The genetic device developed in this study represents to the best of our knowledge the first example of transplanting a prokaryotic transcriptional activator into a eukaryotic chassis and successfully using it to activate gene expression without the need for modifying the protein beyond codon optimization. […] To test the generality of the biosensor design for onboarding other small-molecule binding transcriptional activators as biosensors in yeast we selected four other candidates from the LTTR family; FdeR from Herbaspirillum seropedicae, PcaQ from Sinorhizobium meliloti, ArgP from Escherichia coli, and MdcR from Klebsiella pneumonia, with co-inducers naringenin, protocatechuic acid (PCA), L-arginine, and malonic acid, respectively. In this proof-of-principle study we selected the four candidates based on a minimal set of information, including knowledge about operator sequences, experimental evidence for ligand-inducible control of target operons, and their mode-of-action within native chassis (ie. activation, FIG. 1). Furthermore all of these metabolites can passively diffuse across the yeast plasma membrane, with the exception of malonic acid, which requires the expression of the dicarboxylic acid transporter MAE1 from Schizosaccharomyces pombe. […]

Experiment [3] addresses T1, BenM. Put plainly: Screening 17 yeast strains with BenO at different positions upstream of TATA1 of 209 bp CYC1p. Also on record: expressed in transfected cells; promoters TDH3p, TEF1p, RNR2p or REV1p. The following applies: BenM from REV1p, 1.4 mM CCM, 24 h. The class given is cell-based. As to the method:
FIG. 14. Screening 17 yeast strains expressing BenM from the REV1p in combination with CYC1p reporter promoter of 209 bp with BenO placed at different positions upstream of TATA1. The fold induction (mean±s.d.) was calculated by dividing mean fluorescence intensity (MFI) in medium with 1.4 mM CCM by the MFI in control medium as measured by flow cytometry after 24 h of growth for three biological replicates.
In addition to this, the present inventors also tested 17 different positions for positioning of the BenM binding site (benO).

Experiment [4] has as its system BenO-containing human cytomegalovirus (CMV) promoter. To be noted: 24 h, GFP normalized by RFP; p<0.05 (t-test).
Procedure: CHO cells were transfected with a plasmid with the BenO-containing human cytomegalovirus (CMV) promoter controlling the expression of GFP as well as an empty vector (− BenM) or a vector expressing BenM (+ BenM). Total GFP expression was measured after 24 h, and normalized by total RFP expression. Average and standard deviation are based on three biological replicates. *; p<0.05 (t-test).
For testing the reporter promoter design with other promoter backbones AND in another eukaryotes, Chinese hamster ovary cells was transformed using the human cytomegalovirus promoter backbone (CMV) instead of the CYC1 promoter backbone used in yeast.
Just as in the case with the yeast design using CYC1 promoter as a backbone, the present inventors put the binding site (benO) for the prokaryotic transcriptional activator BenM 6 bp upstream of the TATA box the CMV promoter and scored reporter gene activity (GFP fluorescence) in the presence and absence of the transcriptional activator BenM.

B1: BenM: CCM-inducible LysR-type transcriptional activator from Acinetobacter sp ADP1, codon-optimized for yeast (protein, UniProt O68014 1-304, looked up)
HTH-type transcriptional …: T1 sequence (O68014 whole entry, looked up)
modifications: codon-optimized for yeast
Turning to B1, the “induction of expression compared to promoter activity without co-expression of BenM” value in experiment [1] (491 bp_CYC1p_BenO_T1/T2, no CCM) was 5 fold; in experiment [1] (491 bp_CYC1p_BenO_T1, no CCM), 20 fold. The “reduction in expression upon co-expression of BenM” value in experiment [1] (491 bp_CYC1p_BenO_T2, no CCM) stood at 30%. For the same molecule, in experiment [1] (native 491 bp CYC1p), the “effect of BenM on expression of native CYC1p without BenO” value is on record as “did not increase expression”. Further, the “dynamic range in output by temperature” value in the experiment with BenM [2] is “higher dynamic range in output at 30 °C compared to 37 °C”. Moreover, in the experiment with 209 bp_CYC1p_T1 promoter, the “activation of GFP expression compared to yeast cells without expression of an LTTR” value worked out at 8.1 ×. Besides, the “response with BenO at 17 different positions upstream of TATA box” value in the experiment with BenM [3] is reported as “Only position 6 upstream of the TATA box gave a significant response”. Also, in experiment [4], the “reporter (GFP) expression in CHO with vs without BenM” value is reported as “activates reporter expression”.
